Measurements published in patent publication US8795627B2, “Treatment of liver disorders by administration of RAP conjugates” (Raptor Pharmaceuticals Inc., priority 2007, dated 2014).
Bridge positions count the residues as written; N and C are the ends. * marks the point of attachment. Biotin = O=C1N[C@H]2[C@H](CS[C@H]2CCCCC(=O)*)N1

How the values were obtained:
hepatocellular carcinoma = conditions: systemic chemotherapy, HCC patients; cited from earlier work
wild-type CHO-K1 cells = assay: MTT cell viability after toxin delivery, wild-type CHO-K1; conditions: 48 hours
Description: (§2) In order to determine whether a RAP peptide conjugated to a cytotoxic agent could effectively deliver the toxin to the cell and initiate cell death, an in vitro assay was used to assess delivery of toxin via the RAP-LRP1 binding and internalization pathway.
(§3) Wild-type and LRP1-deficient CHO-K1 cells were grown in BioWhittaker Ultra-CHO supplemented with 5% fetal bovine serum. Cells were seeded in 12-well plates 48 hours prior to the experiment. […] The mixture was diluted into growth media to 100 nM and added to wells in duplicate. […] Cells were incubated for 48 hours at 37° C., 5% CO2 in a humidified chamber. Cell viability for each treatment condition was determined with an MTT assay kit (Invitrogen, San Diego).

[1] = molecular target: T1, recombinant human LRP1 cluster II (Homo sapiens, UniProt Q07954); assay: Solid phase binding assay, affinity for LRP1 cluster II
T1 construct: R&D Systems, amino acids 786-1165, with C-terminal Fc tag; purchased R&D Systems
T1 sequence (Q07954 805-1184): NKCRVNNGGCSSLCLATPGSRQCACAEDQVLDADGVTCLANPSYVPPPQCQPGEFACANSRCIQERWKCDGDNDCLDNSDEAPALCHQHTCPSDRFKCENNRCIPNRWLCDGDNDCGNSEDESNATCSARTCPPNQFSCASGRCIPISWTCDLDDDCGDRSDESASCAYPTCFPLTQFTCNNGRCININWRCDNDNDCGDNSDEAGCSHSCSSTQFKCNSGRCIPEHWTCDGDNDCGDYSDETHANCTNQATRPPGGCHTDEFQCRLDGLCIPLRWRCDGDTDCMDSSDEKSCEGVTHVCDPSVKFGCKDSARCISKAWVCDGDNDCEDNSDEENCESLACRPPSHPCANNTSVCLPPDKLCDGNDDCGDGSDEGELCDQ
Text: (§1) Control wells contained no added inhibitor. […] Excess HRP conjugate was removed and wells washed. Color was developed using TMB reagents (BioRad, Hercules, Calif.).

[2] = in vivo
LRP1-C2 [3] = molecular target: T2, LRP1-C2 (Homo sapiens, UniProt Q07954); assay: Inhibition of RAP d3 binding to LRP1-C2, solid phase assay (streptavidin multimerization); parameters: R&D Systems, amino acids 786-1165, with C-terminal Fc tag; purchased R&D Systems
T2 sequence (Q07954 805-1184): T1 sequence (Q07954 805-1184)
Text: as §1

[4] = in vivo, iv; cited from earlier work
LRP1-C2 [5] = molecular target: T2, LRP1-C2; assay: Inhibition of RAP d3 binding to LRP1-C2, solid phase assay (anti-biotin antibody, preincubation with receptor); conditions: fit parameter of inhibition curve, 2 nM RAP d3
Description: Briefly, recombinant human LRP1 cluster II (R&D Systems, amino acids 786-1165, with C-terminal Fc tag, 1 μg) was used to coat Nunc MAXISORP™ 96-well plates in TBS pH 8 supplemented with 5 mM CaCl2 (TBSC) overnight at 4° C. Wells were washed with TBSC and blocked with TBSC containing 2% BSA.
Since the ligand binding competence of CR pairs requires calcium, identical binding reactions were done in the presence of 50 mM EDTA to provide a measure of non-specific binding. Control wells contained no added inhibitor. Wells were washed with TBS supplemented with 5 mM CaCl2 and 0.05% Tween-20. Bound ligand was detected with either anti-5-peptide-HRP conjugate (Abcam) or anti-α-2-macroglobulin-HRP conjugate (Abcam). Excess HRP conjugate was removed and wells washed. Color was developed using TMB reagents (BioRad, Hercules, Calif.). Absorption at 450 nm was measured with a microplate spectrophotometer (Molecular Devices, Palo Alto).
The same procedure was performed for the controls; peptide alone, antibody alone and full-length RAP.

[6] = in vivo, iv; cited from earlier work; remark: listed apart in the source
[7] = rat, in vivo, iv; cited from earlier work
[8] = test system: LRP1-deficient CHO-K1 cells; assay: MTT cell viability after toxin delivery, LRP1-deficient CHO-K1; conditions: LRP-deficient CHO-K1, 1 μM, 48 hours
Description: as §2, §3

COc1cccc2c1C(=O)c1c(O)c3c(c(O)c1C2=O)C[C@@](O)(C(=O)CO)C[C@@H]3O[C@H]1C[C@H](N)[C@H](O)[C@H](C)O1 [adriamycin]
response rates (hepatocellular carcinoma): 15-20%

biotin-GGSGGCGFREELKHFEAKIEKHNHYQKQLEIAHEKLRHAESVGDGERVSRS REKHALLEGRTKELGYTVKKHLQDLSGGC [mini-RAPc]
effect on cell survival (wild-type CHO-K1 cells; 100 nM, cell type not specified (wild-type and LRP1-deficient CHO-K1 tested)): no significant effect on cell survival

Biotin-GGSGGCEAKIEKHNHYQKQLEIAHEKLRHAESVGDGERVSRSREKHALLEGRTKELGYTVKKHGC (disulfide 6-65 (inferred)) [mRAP-14c]
Kd [1]: ~21 nM

streptavidin: streptavidin alone, control (35S-labeled in bio-distribution studies) [reference compound]
uptake in the woodchuck liver, mean [2]: 435 PSL/mm^2 | inhibitory effect on RAP d3 binding (LRP1-C2 [3]; in words): no inhibitory effect | tissue accumulation [4]: accumulate in kidney, but not significantly in liver

Biotin-GGSGGCGKHFEAKIEKHNHYQKQLEIAHEKLRHAESVGDGERVSRSREKHALLEGRTKELGYTVKKHLQDGC (disulfide 6-72 (inferred)) [mRAP-8c]
Kd [1]: ~4 nM

RAP: mature full-length receptor-associated protein, 323 amino acids (SEQ ID NO: 1); Tables 3 and 4, b198
Maximum binding (LRP1-C2 [5]): 0.74 | toxicity [6]: no measurable toxicity | fold better EC50 than peptide assembled on streptavidin (LRP1-C2 [3]): about 10 fold | Maximum binding (LRP1-C2 [3]; fit parameter of inhibition curve, 2 nM RAP d3): 0.29 | accumulation in heart, brain, muscle or kidney [7]: < 1 % of injected dose | circulating half-life [7]: less than a minute

Saporin [reference compound]
loss of viable cells [8]: ~35% | loss of viable cells (wild-type CHO-K1 cells; wild-type CHO-K1, 1 μM): about 55%
